The text below walks through data of publication PMC6469964.

The target in series [1] is T1, 6xHis-HNRNPK (mouse, UniProt P61979 1-463). Nature of the series: EMSA. (In general: A gel shift assay detects complexes by their altered migration in electrophoresis.)
In series [2] the target is T1, 6xHis-HNRNPK. Nature of the series: EMSA. The source holds these as a separate data set.

Like-named read-outs stand apart in the source and are kept apart here.

B1: WT Repeat B RNA (ssRNA)
RNA: GCCCCAGCCCCUGCCCCAGCCCCAGCCCCUGCCCCUGCCCCAGCCCCUGCCCCA
With B1, in the series with 6xHis-HNRNPK [1], the binding result was “binds”.

B2: mutant Repeat B RNA (ssRNA)
RNA: GCAACAGCAACUGCAACAGCAACAGCAACUGCAACUGCAACAGCAACUGCAACA
As for B2, in the series with 6xHis-HNRNPK [2], the binding result is reported as “no binding”.
